In the supplement of paper PMC9112550, “Optimization of the antimicrobial peptide Bac7 by deep mutational scanning” (BMC Biology, 2022):

Tested on: Escherichia coli TOP10
Experiment: shrunken log2 fold change of peptide-encoding DNA abundance (4.5 h post-induction vs induction); higher = less antimicrobial activity (less host growth inhibition)
Conditions: time post-induction: 4.5 h; library: site-saturation at positions 5, 18, 19, 20
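Note: peptides expressed intracellularly from a pBAD plasmid library in pooled LB shake-flask culture, induced with 0.3% L-arabinose, DNA abundance read by NGS, three biological replicates, DESeq2 with apeglm shrinkage.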

In order of rising “shrunken log2 fold change” value:
1. RRIRWRPPRLPRPRPRPYHPPRP  -1.08
2. RRIRVRPPRLPRPRPRPYYKPRP  -0.67
3. RRIRTRPPRLPRPRPRPMFNPRP  -0.643
4. RRIRPRPPRLPRPRPRPYFEPRP  -0.633
5. RRIRSRPPRLPRPRPRPYMTPRP  -0.586
6. RRIRFRPPRLPRPRPRPQYSPRP  -0.581
7. RRIRFRPPRLPRPRPRPSDNPRP  -0.527
8. RRIRDRPPRLPRPRPRPSIKPRP  -0.491
9. RRIRIRPPRLPRPRPRPCCLPRP  -0.478
10. RRIRLRPPRLPRPRPRPTKYPRP  -0.47
11. RRIRQRPPRLPRPRPRPSNMPRP  -0.459
12. RRIRVRPPRLPRPRPRPLTNPRP  -0.447
13. RRIRSRPPRLPRPRPRPFDLPRP  -0.419
14. RRIRLRPPRLPRPRPRPNSPPRP  -0.418
15. RRIRTRPPRLPRPRPRPYGPPRP  -0.406
16. RRIRCRPPRLPRPRPRPMNFPRP  -0.383
17. RRIRYRPPRLPRPRPRPTVPPRP  -0.382
18. RRIRTRPPRLPRPRPRPQMVPRP  -0.37
19. RRIRMRPPRLPRPRPRPYVFPRP  -0.368
20. RRIRIRPPRLPRPRPRPVVNPRP  -0.356
21. RRIRERPPRLPRPRPRPTHSPRP  -0.335
22. RRIRTRPPRLPRPRPRPMDHPRP  -0.31
23. RRIRSRPPRLPRPRPRPHNDPRP  -0.309
24. RRIRARPPRLPRPRPRPYGYPRP  -0.294
25. RRIRHRPPRLPRPRPRPGCLPRP  -0.278
26. RRIRDRPPRLPRPRPRPINPPRP  -0.277
27. RRIRTRPPRLPRPRPRPHHQPRP  -0.272
28. RRIRWRPPRLPRPRPRPYHWPRP  -0.236
29. RRIRSRPPRLPRPRPRPMFMPRP  -0.223
30. RRIRHRPPRLPRPRPRPHGRPRP  -0.219
31. RRIRHRPPRLPRPRPRPAGFPRP  -0.207
32. RRIRYRPPRLPRPRPRPIFCPRP  -0.201
33. RRIRERPPRLPRPRPRPGSQPRP  -0.196
34. RRIRHRPPRLPRPRPRPVNTPRP  -0.18
35. RRIRSRPPRLPRPRPRPWKFPRP  -0.176
36. RRIRHRPPRLPRPRPRPAILPRP  -0.171
37. RRIRQRPPRLPRPRPRPKFLPRP  -0.157
38. RRIRVRPPRLPRPRPRPMSFPRP  -0.157
39. RRIRGRPPRLPRPRPRPLTIPRP  -0.155
40. RRIRTRPPRLPRPRPRPCCIPRP  -0.155
41. RRIRTRPPRLPRPRPRPCNMPRP  -0.154
42. RRIRQRPPRLPRPRPRPLIVPRP  -0.149
43. RRIRHRPPRLPRPRPRPFQPPRP  -0.135
44. RRIRERPPRLPRPRPRPEDPPRP  -0.134
45. RRIRNRPPRLPRPRPRPFPIPRP  -0.132
46. RRIRHRPPRLPRPRPRPIQYPRP  -0.122
47. RRIRFRPPRLPRPRPRPDWIPRP  -0.114
48. RRIRQRPPRLPRPRPRPWAYPRP  -0.11
49. RRIRLRPPRLPRPRPRPEFMPRP  -0.109
50. RRIRMRPPRLPRPRPRPVCSPRP  -0.0933
51. RRIRHRPPRLPRPRPRPIMRPRP  -0.0864
52. RRIRIRPPRLPRPRPRPMEAPRP  -0.0793
53. RRIRYRPPRLPRPRPRPMHQPRP  -0.0734
54. RRIRFRPPRLPRPRPRPQLPPRP  -0.0654
55. RRIRPRPPRLPRPRPRPFSVPRP  -0.0603
56. RRIRQRPPRLPRPRPRPFPNPRP  -0.0586
57. RRIRQRPPRLPRPRPRPACRPRP  -0.0513
58. RRIRKRPPRLPRPRPRPWFFPRP  -0.043
59. RRIRKRPPRLPRPRPRPAYPPRP  -0.0401
60. RRIRWRPPRLPRPRPRPYQKPRP  -0.0398
61. RRIRYRPPRLPRPRPRPYDRPRP  -0.039
62. RRIRRRPPRLPRPRPRPSHKPRP  -0.0351
63. RRIRMRPPRLPRPRPRPNCCPRP  -0.0306
64. RRIRHRPPRLPRPRPRPVIEPRP  -0.0264
65. RRIRFRPPRLPRPRPRPNTTPRP  -0.0257
66. RRIRLRPPRLPRPRPRPMQKPRP  -0.0247
67. RRIRGRPPRLPRPRPRPQQAPRP  -0.0245
68. RRIRRRPPRLPRPRPRPKVPPRP  -0.0226
69. RRIRHRPPRLPRPRPRPAKDPRP  -0.0214
70. RRIRNRPPRLPRPRPRPYHCPRP  -0.0116
71. RRIRKRPPRLPRPRPRPFQCPRP  -0.01
72. RRIRPRPPRLPRPRPRPQFFPRP  -0.0064
73. RRIRCRPPRLPRPRPRPVFEPRP  -0.00537
74. RRIRYRPPRLPRPRPRPWRFPRP  -0.00218
75. RRIRKRPPRLPRPRPRPIQWPRP  -0.00149
76. RRIRWRPPRLPRPRPRPGYEPRP  0.00228
77. RRIRIRPPRLPRPRPRPHWPPRP  0.00237
78. RRIRVRPPRLPRPRPRPTYVPRP  0.00864
79. RRIRNRPPRLPRPRPRPDVHPRP  0.0115
80. RRIRARPPRLPRPRPRPEYSPRP  0.0132
81. RRIRWRPPRLPRPRPRPTNQPRP  0.018
82. RRIRERPPRLPRPRPRPQCAPRP  0.0306
83. RRIRGRPPRLPRPRPRPEVKPRP  0.0386
84. RRIRWRPPRLPRPRPRPMEYPRP  0.0388
85. RRIRDRPPRLPRPRPRPMTQPRP  0.0403
86. RRIRQRPPRLPRPRPRPGCFPRP  0.0403
87. RRIRPRPPRLPRPRPRPKWFPRP  0.0432
88. RRIRDRPPRLPRPRPRPKEFPRP  0.0479
89. RRIRARPPRLPRPRPRPWAPPRP  0.0486
90. RRIRHRPPRLPRPRPRPEDPPRP  0.0512
91. RRIRRRPPRLPRPRPRPFQSPRP  0.0629
92. RRIRNRPPRLPRPRPRPEWMPRP  0.066
93. RRIRERPPRLPRPRPRPQGVPRP  0.0697
94. RRIRERPPRLPRPRPRPWRPPRP  0.0707
95. RRIRMRPPRLPRPRPRPWLAPRP  0.0737
96. RRIRWRPPRLPRPRPRPRQKPRP  0.0761
97. RRIRCRPPRLPRPRPRPVRYPRP  0.0829
98. RRIRNRPPRLPRPRPRPCCEPRP  0.0852
99. RRIRKRPPRLPRPRPRPRDMPRP  0.0936
100. RRIRCRPPRLPRPRPRPARQPRP  0.0993
101. RRIRDRPPRLPRPRPRPRVVPRP  0.11
102. RRIRNRPPRLPRPRPRPQGWPRP  0.114
103. RRIRKRPPRLPRPRPRPHPNPRP  0.135
104. RRIRYRPPRLPRPRPRPTGAPRP  0.136
105. RRIRKRPPRLPRPRPRPIAHPRP  0.143
106. RRIRPRPPRLPRPRPRPETQPRP  0.15
107. RRIRMRPPRLPRPRPRPKDLPRP  0.153
108. RRIRLRPPRLPRPRPRPDFQPRP  0.157
109. RRIRQRPPRLPRPRPRPVIEPRP  0.162
110. RRIRVRPPRLPRPRPRPLKKPRP  0.181
111. RRIRARPPRLPRPRPRPRMNPRP  0.183
112. RRIRVRPPRLPRPRPRPLPTPRP  0.184
113. RRIRCRPPRLPRPRPRPIWFPRP  0.21
114. RRIRGRPPRLPRPRPRPLDSPRP  0.217
115. RRIRKRPPRLPRPRPRPNEKPRP  0.218
116. RRIRKRPPRLPRPRPRPNVWPRP  0.258
117. RRIRVRPPRLPRPRPRPAGPPRP  0.264
118. RRIRPRPPRLPRPRPRPLCWPRP  0.266
119. RRIRARPPRLPRPRPRPMDHPRP  0.267
120. RRIRGRPPRLPRPRPRPKQWPRP  0.28
121. RRIRARPPRLPRPRPRPQDQPRP  0.302
122. RRIRFRPPRLPRPRPRPQVRPRP  0.305
123. RRIRARPPRLPRPRPRPPCVPRP  0.342
124. RRIRGRPPRLPRPRPRPLWMPRP  0.343
125. RRIRMRPPRLPRPRPRPLSRPRP  0.349
126. RRIRMRPPRLPRPRPRPELHPRP  0.397
127. RRIRWRPPRLPRPRPRPGNEPRP  0.403
128. RRIRMRPPRLPRPRPRPAEVPRP  0.411
129. RRIRCRPPRLPRPRPRPVAEPRP  0.417
130. RRIRKRPPRLPRPRPRPRTHPRP  0.425
131. RRIRKRPPRLPRPRPRPENTPRP  0.44
132. RRIRARPPRLPRPRPRPDQWPRP  0.493
133. RRIRMRPPRLPRPRPRPLAFPRP  0.52
134. RRIRQRPPRLPRPRPRPPTPPRP  0.538
135. RRIRGRPPRLPRPRPRPPSTPRP  0.643
136. RRIRGRPPRLPRPRPRPQPSPRP  0.65
137. RRIRARPPRLPRPRPRPRGVPRP  0.682
138. RRIRRRPPRLPRPRPRPGRDPRP  0.717
139. RRIRYRPPRLPRPRPRPLRPPRP  0.786
140. RRIRWRPPRLPRPRPRPKPPPRP  0.821
141. RRIRDRPPRLPRPRPRPTRAPRP  0.889
142. RRIRGRPPRLPRPRPRPLLPPRP  0.895
143. RRIRGRPPRLPRPRPRPPVDPRP  0.953
144. RRIRARPPRLPRPRPRPPWWPRP  1.03
145. RRIRMRPPRLPRPRPRPRPKPRP  1.07
146. RRIRWRPPRLPRPRPRPAAAPRP  1.21
147. RRIRMRPPRLPRPRPRPHDWPRP  1.45
148. RRIRKRPPRLPRPRPRPEGAPRP  1.54
149. RRIRGRPPRLPRPRPRPNEWPRP  1.8
150. RRIRRRPPRLPRPRPRPEHPPRP  3.32
